Laboratory results as given in US20220228157A1, “GENE EDITING IN DIVERSE BACTERIA” (priority 2019, published 2022).

B1: Redβ: Redβ SSAP from Enterobacteria phage λ, SEQ ID NO: 474 (protein)
chain: MSTALATLAGKLAERVGMDSVDPQELITTLRQTAFKCDASDAQFIALLIVANQYGLNPWTKEIYAFPDKQNGIVPVVGVDGWSRIINENQQFDGMDFEQDNESCTCRIYRKDRNHPICVTEWMDECRREPFKTREGREITGPWQSHPKRMLRHKAMIQCARLAFGFAGIYDKDEAERIVENTAYTAERQPERDITPVNDETMQEINTLLIALDKTWDDDLLPLCSQIFRRDIRASSELTQAEAVKALGFLKQKATEQKVAA
modifications: Bacteriophage Lambda
B2: CspRecT: RecT SSAP (UniParc ID: UPI0001837D7F) from a phage of Collinsella stercoris (protein)
chain: MNQIVKFTDDSGLAVQVTPDDVRRYICENATEKEVGLFLQLCQTQRLNPFVKDAYLVKYGGAPASMITSYQVFNRRACRDANYDGIKSGVVVLRDGDVVHKRGAACYKKAGEELIGGWAEVRFKDGRETAYAEVALDDYSTGKSNWAKMPGVMIEKCAKAAAWRLAFPDTFQGMYAAEEMDQAQQPEQVRAQAEQPVDLQPIRELFKPYCEHFGITPAEGMTAVCGAVGAEGMHSMTEQQARRARAWMEEEMAAPAVEAEYEVVDEGEVF
modifications: Collinsella stercoris DSM 13279
B3: PapRecT: SSAP from Pseudomonas aeruginosa, SEQ ID NO: 24, UniParc ID: UPI0001E9E6CB (protein, listed as Pseudomonas aeruginosa)
chain: MGTALTPLLTKFATRYEMGTTPEEVANTLKQTCFKGQVNDSQMVALLIVADQYKLNPFTKELYAFPDKNNGIVPVVGVDGWARIINENPQFDGMEFSMDQQGTECTCKIYRKDRSHAISATEYMAECKRNTQPWQSHPRRMLRHKAMIQCARLAFGFAGIYDQDEAERIVERDVTPAEQYEDVSEAICLIKDSPTMEDLQAAFSNAWKAYKTKGARDQLTAAKDQRKKELLDAPIDVEFEETGDDRAA

Key:
L. rhamnosus = format: cell-based; details: L. rhamnosus
Procedure: Finally, the model for RecT was used to establish recombineering in L. rhamnosus, a well-studied probiotic used to treat a variety of illnesses including diarrhea and bacterial vaginosis. Although the L. rhamnosus SSB and L. lactis SSB only have 47% identity, they share identical SSB C-terminal tail 7 amino acids. It was determined whether LrpRecT (which functions in L. lactis) is portable to L. rhamnosus, while the other RecT proteins would not be functional.

E. coli MG1655 = test: DIvERGE mutagenesis of gyrA, gyrB, parC, parE with ciprofloxacin selection; format: cell-based, Escherichia coli; details: one round of DIvERGE
E. coli SEER chassis = test: SEER library selection (frequency and enrichment by NGS); format: cell-based, Escherichia coli; details: Broad RecT Library, 10 rounds of SEER
Procedure: Therefore, it was determined whether by screening additional RecT variants, again exploiting the increased throughput of SEER compared to previous efforts, one might discover recombineering proteins further improved over Redβ and PapRecT. To this aim a second library was constructed, identifying a maximally diverse group of 109 RecT variants, 106 of which were synthesized successfully, which was called Broad RecT Library (see Methods for more details). Next, as previously described, 10 rounds of SEER selection was performed on Broad RecT Library (FIGS. 8A-8B), and upon plotting frequency against enrichment after the final selection, a clear winner emerged (FIG. 9A). […]
Native resistance alleles were identified in each of the three species for resistance to rifampicin (rif) at the rpoB locus or streptomycin (stm) at the rpsL locus. The concentration of antibiotic necessary to confer a selective benefit to the resistant allele was determined for each strain. […]
Primers were designed to amplify a 215 bp product containing the barcode region of the SSAP libraries from the pARC8 plasmid and to add on Illumina adaptors. […] Barcoded amplicons were then purified with AMPure XP magnetic beads (Beckman Coulter), pooled, and the final pooled library was quantified with the NEBNext Library Quant Kit for Illumina (NEB). […]

M. smegmatis = test: Allelic recombination frequency, selective vs non-selective plates; format: cell-based, Mycobacterium smegmatis
Procedure: A single colony of M. smegmatis was grown overnight to saturation. The next day 25 μL of dense culture was inoculated into 5 mL of fresh media in the evening and grown overnight to an OD600 of 0.9. Cells were pelleted at 4° C. by centrifugation at 3,500×g for 10 minutes and washed twice with 10 mL ice-cold 10% glycerol. Cells were resuspended in 360 μL ice-cold 10% glycerol and transferred along with 10 μL of DNA to a pre-chilled 0.2 cm electroporation cuvette.
Electrocompetent cells were electroporated with 90-mer oligos at: 1 uM for E. coli, 50 μg for L. lactis, and 10 uM for C. crescentus. 70-mer oligos were used at 1 μg for M. smegmatis. All oligos were obtained from IDT and can be found under “Oligonucleotides for genome editing” in materials and methods. For dsDNA experiments L. lactis was electroporated with 1.5 μg purified linear dsDNA. Cells were electroporated using a Bio-Rad gene pulser set to 25 μF, 200 S2, and 1.8 kV for E. coli, 2.0 kV for L. lactis, and 1.5 kV for C. crescentus and to 1000Ω and 2.5 kV for M. smegmatis. […] Colonies were counted using a custom script in Fiji, and allelic recombination frequency was calculated by dividing the number of colonies on selective plates, with the number of colonies on non-selective plates.

Molecule | Oligonucleotide incorporation (L. rhamnosus) | Colonies relative to Redβ and PapRecT (E. coli MG1655; 250 ng/mL CIP, 130 oligos) | Resistant variants produced (E. coli MG1655; 1,000 ng/mL CIP) | Frequency against enrichment after final selection (E. coli SEER chassis) | Editing efficiency (M. smegmatis)
B1 | negligible activity | – | – | – | –
B2 | – | more than ten times as many colonies | only the use of CspRecT produced resistant variants | clear winner | –
B3 | negligible activity | – | – | – | enabled high efficiency editing
